Data from patent publication US9266964.
Where a chain is given by its changes, count along the chain named.

B1: X115-F02 (Fab, V domains shown)
VH: EVQLLESGGGLVQPGGSLRLSCAASGFTFSHYIMMWVRQAPGKGLEWVSGIYSSGGITVYADSVKGRFTISRDNSKNTLYLQMNSLRAEDTAVYYCAYRRIGVPRRDEFDIWGQGTMVTVSS
VL: DIQMTQSPSTLSASVGDRVTITCRASQSISSWLAWYQQKPGKAPKLLIYKASTLESGVPSRFSGSGSGTEFTLTISSLQPDDFATYYCQQYNTYWTFGQGTKVEIK
notes: also called 559A-X115-F02; 559A-X0115-F02
B2: X115-G04 (antibody, V domains shown)
VH: B1 VH with I101T
VL: B1 VL
notes: also called 559A-X115-G04; 559A-X0115-G04
B3: X115-D01 (antibody, V domains shown)
VH: EVQLLESGGGLVQPGGSLRLSCAASGFTFSIYSMHWVRQAPGKGLEWVSSIYPSRGMTWYADSVKGRFTISRDNSKNTLYLQMNSLRAEDTAVYYCAYRRTGIPRRDAFDIWGQGTMVTVSS
VL: B1 VL
notes: also called 559A-X115-D01; 559A-X0115-D01
B4: X115-A03 (antibody, V domains shown)
VH: B1 VH with Y98W, E108S, I111M
VL: B1 VL
notes: also called 559A-X115-A03; 559A-X0115-A03
B5: DX-2922 (antibody, V domains shown)
VH: EVQLLESGGGLVQPGGSLRLSCAASGFTFSHYLMTWVRQAPGKGLEWVSYISPSGGHTIYADSVKGRFTISRDNSKNTLYLQMNSLRAEDTAVYYCARVARGIAARSRTSYFDYWGQGTLVTVSS
VL: EIVLTQSPGTLSLSPGERATLSCRTSQFVNSNYLAWYQQKPGQAPRLLIYGASSRATGIPDRFSGSGSGTDFTLTISRLEPEDFAVYYCQQSSRTPWTFGQGTKVEIK
notes: also called X101-A01; 559A-X0101-A01
B6: X115-B07 (antibody, V domains shown)
VH: B5 VH with R98M, A100G, R101Q, A104R, A105G, D113A, Y114Q
VL: B5 VL
notes: also called 559A-X115-B07; 559A-X0115-B07
B7: X67-H04 (IgG) (antibody, V domains shown)
VH: EVQLLESGGGLVQPGGSLRLSCAASGFTFSAYSMIWVRQAPGKGLEWVSYIRPSGGRTTYADSVKGRFTISRDNSKNTLYLQMNSLRAEDTAVYYCARGGLLLWERELKSNYFDYWGQGTLVTVSS
VL: DIQMTQSPSSLSAFVGDRVTITCRASQPIDNYLNWYHQKPGKAPKLLIYAASRLQSGVPSRLSGSGFGTDFTLTISSLQPEDFGNYYCQQSYTVPYTFGGGTKVEIR
notes: printed HC runs into CH1; also called 559A-X67-H04
B8: M29-D09 (Fab, V domains shown)
VH: EVQLLESGGGLVQPGGSLRLSCAASGFTFSWYTMVWVRQAPGKGLEWVSYIYPSGGATFYADSVKGRFTISRDNSKNTLYLQMNSLRAEDTAVYYCAMGSYDYIWGFYSDHWGQGTLVTVSS
VL: QSALTQPPTVSVSPGQTARITCSGNKLGDKYVAWYQQKPGQSPMLVIYQDTKRPSRVSERFSGSNSANTATLSISGTQALDEADYYCQAWDSSIVIFGGGTRLTVL
notes: also called 559A-M29-D09 (sFab); 559A-M0029-D09
B9: X115-F02 (Fab, V domains shown)
VH: B1 VH
VL: B1 VL
notes: as for B1
B10: X115-A03 (antibody, V domains shown)
VH: B1 VH with Y98W, E108S, I111M
VL: B1 VL
notes: only variable domains given; also called 559A-X115-A03; 559A-X0115-A03
B11: X115-D01 (antibody, V domains shown)
VH: B3 VH
VL: B1 VL
notes: only variable domains given; also called 559A-X115-D01; 559A-X0115-D01
B12: X115-G04 (antibody, V domains shown)
VH: B1 VH with I101T
VL: B1 VL
notes: only variable domains given; also called 559A-X115-G04; 559A-X0115-G04
B13: DX-2922 (antibody, V domains shown)
VH: B5 VH
VL: B5 VL
notes: Germlined IgG produced in CHO cells; only the variable domains are printed; also called X101-A01; 559A-X0101-A01
B14: X115-B07 (antibody, V domains shown)
VH: B5 VH with R98M, A100G, R101Q, A104R, A105G, D113A, Y114Q
VL: B5 VL
notes: only variable domains given; also called 559A-X115-B07; 559A-X0115-B07
B15: M145-D11 (Fab, V domains shown)
VH: EVQLLESGGGLVQPGGSLRLSCAASGFTFSHYRMSWVRQAPGKGLEWVSSIYPSGGRTVYADSVKGRFTISRDNSKNTLYLQMNSLRAEDTAVYYCAKDKFEWRLLFRGIGNDAFDIWGQGTMVTVSS
VL: QSVLTQPPSVSVSPGQTASITCSGDKLGDKYTSWYQQRPGQSPVLVIYQDIKRPSGIPERFSGSNSGNTATLTISGTQAMDEADYYCQAWDSPNARVFGSGTKVTVL
notes: also called 559A-M145-D11 (sFab); 559A-M0145-D11
B16: M35-G04 (antibody, V domains shown)
VH: EVQLLESGGGLVQPGGSLRLSCAASGFTFSYYHMSWVRQAPGKGLEWVSVISPSGGSTKYADSVKGRFTISRDNSKNTLYLQMNSLRAEDTAVYYCARGGSSDYAWGSYRRPYYFDYWGQGTLVTVSS
VL: DIQMTQSPATLSLSPGERATLSCRASQSVSSYLAWYQQKPGQAPRLLIYDASNRATGIPARFSGSGSGTDFTLTISSLEPEDFAVYYCQQRSNWPRGFTFGPGTKVDIK
notes: Only variable domains printed; also called 559A-M35-G04; 559A-M0035-G04
B17: M06-D09 (antibody, V domains shown)
VH: EVQLLESGGGLVQPGGSLRLSCAASGFTFSFYYMVWVRQAPGKGLEWVSVIYPSGGITVYADSVKGRFTISRDNSKNTLYLQMNSLRAEDTAVYYCARDKWAVMPPYYYYAMDVWGQGTTVTVSS
VL: DIQMTQSPSSLSASVGDRVTITCRASQSIRNYLNWYQQKPGKAPNLLIYAASTLQSGVPARFSGSGSGTDFTLTISSLQPEDFATYYCQQLSGYPHTFGQGTKLEIK
notes: Only variable domains printed; also called M6-D09; 559A-M06-D09

Target: T1, pKal catalytic domain Mutant 1 (human, UniProt P03952 391-638, limits assumed)
T1 construct: domain: catalytic domain; Expressed in Pichia pastoris, purified by IMAC; not shown: His tag fusion
Test: apparent Ki (Ki,app), enzyme inhibition, pKal catalytic domain Mutant 1
Protocol: (§1) Apparent Inhibition constants (K_{i,app} values) were measured by pre-incubating enzyme and inhibitor solutions prior to initiating the reactions with substrate. Enzyme and inhibitor were pre-incubated for 2 hours at 30° C. in a 96-well plate by adding 10 μL of a 10× enzyme solution and 10 μL of 10× inhibitor solutions to 70 μL of reaction buffer. Reactions were initiated by the addition of 10 μL of a 10× concentrated stock of substrate, and were monitored at 30° C. in a fluorescence plate reader with the excitation and emission wavelengths set at 360 nm/460 nm, respectively. Kinetic data were acquired by the increase in fluorescence, and initial rates for each condition were plotted against the total inhibitor concentration. The data was fit to the following equation for tight binding inhibitors: […]

Binder	Ki [pM]
B1	140
B2	400
B3	260
B4	230
B5	14000
B6	4700

Target: T2, human plasma kallikrein (human, UniProt P03952 20-390; P03952 391-638)
T2 construct: two disulfide linked chains; also called pKal; human pKal
T2 sequence (P03952 20-390, chain 1 of 2): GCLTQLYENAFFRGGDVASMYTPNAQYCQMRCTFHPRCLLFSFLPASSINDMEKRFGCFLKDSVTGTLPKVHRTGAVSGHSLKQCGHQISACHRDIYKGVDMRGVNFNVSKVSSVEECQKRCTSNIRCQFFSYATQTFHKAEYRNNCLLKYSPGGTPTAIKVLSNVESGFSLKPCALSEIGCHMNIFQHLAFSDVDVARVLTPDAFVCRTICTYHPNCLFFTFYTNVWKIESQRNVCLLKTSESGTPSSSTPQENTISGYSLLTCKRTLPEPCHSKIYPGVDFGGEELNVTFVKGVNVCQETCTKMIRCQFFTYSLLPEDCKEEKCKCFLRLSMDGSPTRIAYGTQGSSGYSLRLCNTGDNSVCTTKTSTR
T2 sequence (P03952 391-638, chain 2 of 2): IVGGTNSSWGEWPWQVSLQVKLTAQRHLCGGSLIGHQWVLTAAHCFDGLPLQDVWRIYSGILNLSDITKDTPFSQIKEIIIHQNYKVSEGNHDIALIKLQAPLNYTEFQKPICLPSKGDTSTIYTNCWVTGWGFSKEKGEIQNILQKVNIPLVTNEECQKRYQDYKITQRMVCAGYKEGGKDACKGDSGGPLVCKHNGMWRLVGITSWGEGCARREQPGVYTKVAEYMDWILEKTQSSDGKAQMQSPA
Test: Ki,app as an IgG, steady state enzyme kinetics, inhibition of human pKal

Binder	Ki [pM]
B7	3600

Target: T3, human plasma kallikrein (full length, active) (human, UniProt P03952 20-390; P03952 391-638)
T3 construct: two disulfide linked polypeptides; also called Full length pKal; pKal
T3 sequence (P03952 20-390, chain 1 of 2): as the sequence (P03952 20-390, chain 1 of 2) above
T3 sequence (P03952 391-638, chain 2 of 2): as the sequence (P03952 391-638, chain 2 of 2) above
Test: Ki,app: enzyme inhibition, fluorescent substrate, 2 h pre-incubation at 30 C, tight-binding fit
Protocol: as §1

Binder	Ki [pM]
B8	700
B9	89
B10	160
B11	180
B12	600
B13	200
B14	330
B15	790
B16	2900
B17	5900

Target: T4, wild type pKal catalytic domain (human, UniProt P03952 391-638, limits assumed)
T4 construct: domain: catalytic domain; The expression in Pichia pastoris with a His tag and IMAC purification is told of the mutants; also called WT cat; Domain; not shown: His tag fusion
Test: as above
Protocol: as §1

Binder	Ki [pM]
B8	240
B9	90
B10	160
B11	180
B12	300
B13	220
B15	160
B16	800
B17	2500

Target: T5, pKal catalytic domain Mutant 1 (human, UniProt P03952 391-638, limits assumed)
T5 construct: domain: catalytic domain; Expressed in Pichia pastoris, purified by IMAC; not shown: His tag fusion
Test: as above
Protocol: as §1

Binder	Ki [pM]
B8	270
B9	140
B10	230
B11	260
B12	400
B13	14000
B14	4700
B15	230
B16	90
B17	3400

Target: T6, pKal catalytic domain Mutant 2 (human, UniProt P03952 391-638, limits assumed)
T6 construct: domain: catalytic domain; Expressed in Pichia pastoris, purified by IMAC; not shown: His tag fusion
Test: as above
Protocol: as §1

Binder	Ki [pM]
B8	340
B9	5900
B10	3700
B11	2500
B12	2200
B13	20000
B14	47000
B15	100
B16	1100
B17	13500

Target: T7, wild type pKal catalytic domain (human, UniProt P03952 391-638, limits assumed)
T7 construct: domain: catalytic domain; also called WT cat; Domain; not shown: His tag fusion
Test: apparent Ki (Ki,app), enzyme inhibition, wild type pKal catalytic domain
Protocol: as §1

Binder	Ki [pM]
B1	90
B2	300
B3	180
B4	160
B5	220
B6	130

Target: T8, pKal catalytic domain Mutant 2 (human, UniProt P03952 391-638, limits assumed)
T8 construct: domain: catalytic domain; Expressed in Pichia pastoris, purified by IMAC; not shown: His tag fusion
Test: apparent Ki (Ki,app), enzyme inhibition, pKal catalytic domain Mutant 2
Protocol: as §1

Binder	Ki [pM]
B1	5900
B2	2200
B3	2500
B4	3700
B5	20000
B6	47000
